Literature values as cited in publication PMC4934914.

Legend:
[1] = molecular target: BsHemH (Bacillus subtilis) (UniProt P32396)
[2] = molecular target: BsSufU (Bacillus subtilis) (UniProt O32163)
IscS (Escherichia coli) = IscS (Escherichia coli) (UniProt P0A6B7)
Chain of IscS (Escherichia coli) (P0A6B7 whole entry): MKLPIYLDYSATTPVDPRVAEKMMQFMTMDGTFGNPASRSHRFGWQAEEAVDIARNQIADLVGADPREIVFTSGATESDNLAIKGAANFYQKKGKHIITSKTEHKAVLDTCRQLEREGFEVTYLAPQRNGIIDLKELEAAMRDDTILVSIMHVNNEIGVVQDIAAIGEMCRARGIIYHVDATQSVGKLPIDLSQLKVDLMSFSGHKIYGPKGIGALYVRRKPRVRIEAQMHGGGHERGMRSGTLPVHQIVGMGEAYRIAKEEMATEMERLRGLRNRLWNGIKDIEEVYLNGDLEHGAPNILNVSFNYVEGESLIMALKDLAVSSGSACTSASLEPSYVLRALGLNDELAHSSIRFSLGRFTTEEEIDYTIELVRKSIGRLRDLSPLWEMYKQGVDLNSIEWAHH

Chain of CyaY (P27838 whole entry): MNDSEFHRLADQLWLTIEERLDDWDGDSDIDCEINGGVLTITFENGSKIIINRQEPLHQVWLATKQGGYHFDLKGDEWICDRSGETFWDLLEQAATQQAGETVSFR
Chain of BsSufS (O32164 whole entry): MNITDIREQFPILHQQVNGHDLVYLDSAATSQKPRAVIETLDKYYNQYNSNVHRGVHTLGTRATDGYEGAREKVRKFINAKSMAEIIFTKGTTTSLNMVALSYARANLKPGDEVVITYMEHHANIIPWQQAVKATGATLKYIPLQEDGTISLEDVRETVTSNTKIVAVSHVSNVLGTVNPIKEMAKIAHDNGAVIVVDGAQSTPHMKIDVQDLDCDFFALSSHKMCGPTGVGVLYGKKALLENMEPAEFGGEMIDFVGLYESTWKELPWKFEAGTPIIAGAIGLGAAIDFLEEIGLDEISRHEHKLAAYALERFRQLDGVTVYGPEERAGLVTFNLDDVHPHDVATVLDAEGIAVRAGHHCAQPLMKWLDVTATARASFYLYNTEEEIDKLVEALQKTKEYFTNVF
Chain of BsSufU (Bacillus subtilis) (O32163 whole entry): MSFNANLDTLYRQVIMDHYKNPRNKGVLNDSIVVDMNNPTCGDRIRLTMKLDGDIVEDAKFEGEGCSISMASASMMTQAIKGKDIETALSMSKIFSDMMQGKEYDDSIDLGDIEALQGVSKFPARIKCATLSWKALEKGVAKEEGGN
Chain of BsHemH (Bacillus subtilis) (P32396 whole entry): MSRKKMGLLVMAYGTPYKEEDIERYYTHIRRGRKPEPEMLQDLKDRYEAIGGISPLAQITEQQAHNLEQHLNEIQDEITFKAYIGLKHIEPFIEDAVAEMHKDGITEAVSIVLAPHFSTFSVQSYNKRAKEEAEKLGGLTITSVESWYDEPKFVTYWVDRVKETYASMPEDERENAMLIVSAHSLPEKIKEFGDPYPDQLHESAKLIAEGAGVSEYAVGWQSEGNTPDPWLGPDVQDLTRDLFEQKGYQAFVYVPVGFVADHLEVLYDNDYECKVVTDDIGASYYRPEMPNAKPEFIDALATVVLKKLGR
Chain of BsFra (frataxin) (Q797E6 whole entry): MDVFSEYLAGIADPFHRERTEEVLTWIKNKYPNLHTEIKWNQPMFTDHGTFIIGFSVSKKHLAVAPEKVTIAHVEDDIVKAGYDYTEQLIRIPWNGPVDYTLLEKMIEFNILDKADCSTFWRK

In the case of BsFra (frataxin) (from UniProt Q797E6), the Kd [1] is listed as 1630 nM.
For BsSufS (from UniProt O32164), the Kd [2] is listed as 2630 nM.
For CyaY (from UniProt P27838), the Kd (IscS (Escherichia coli)) is listed as 18500 nM.
